Target: Full-length human AURKA^T288V (human) (UniProt O14965)
Test: fluorescence polarisation; competitive displacement: 5 nM FITC-Tpx2^1–43 and 35 nM AURKA kept constant, unlabeled competitor (Bora or Tpx2) varied; 25 mM HEPES pH 7.5, 50 mM NaCl, 10 mM MgCl2, 0.1 mg/mL BSA, 0.01% Brij, 3 mM ADP, 2 mM DTT

Sequence of Full-length human AURKA^T288V (human) (O14965 other isoform, or with tags, fused parts or gaps T288V | T288V): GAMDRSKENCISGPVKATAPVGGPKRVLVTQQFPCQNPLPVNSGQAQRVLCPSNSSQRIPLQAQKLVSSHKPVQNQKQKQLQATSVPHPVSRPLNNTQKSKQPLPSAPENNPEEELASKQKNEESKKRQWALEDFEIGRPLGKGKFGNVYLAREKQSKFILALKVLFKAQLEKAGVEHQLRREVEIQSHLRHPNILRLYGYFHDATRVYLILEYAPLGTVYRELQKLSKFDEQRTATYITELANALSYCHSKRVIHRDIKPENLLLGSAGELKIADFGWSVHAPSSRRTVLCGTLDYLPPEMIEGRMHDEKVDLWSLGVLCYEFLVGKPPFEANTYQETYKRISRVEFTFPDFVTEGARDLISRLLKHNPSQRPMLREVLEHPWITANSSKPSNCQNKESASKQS

fold less efficient displacement of FITC-Tpx2^1–43 than pBora^1–224: 20 fold
Substance: pBora^18–120 (from UniProt Q6PGQ7 18-120) (domain or fragment)

From article PMC7997955
